Laboratory results reported in US11466067B2 (priority 2019, dated 2022).

Experiments:
[1] = tested on: T lymphocytes and macrophages; test: Cellular target in Lamina propria (CD3, F4/80, pSTAT3) after oral gavage; type: in vivo, mouse
[2] = Oral gavage 10 mg/kg in mice: hIL-10 and IL-1Ra time course; type: in vivo
Source text: The inflammatory actions of IL-1β are modulated by the presence of a specific receptor antagonist known as IL-1Ra. Increased serum IL-1Ra levels can be induced by IL-10, which can occur in the absence of a pro-inflammatory state. With an appreciation of uncertainties associated with how much and when biologically active delivery construct is released from the stomach to reach the small intestine as well as the timing of its uptake and actions within the Lamina propria following oral gavage, we examined IL-1Ra to function in non-inflamed mice as a biomarker of the IL-10 delivery construct's actions.
To test this question, the delivery construct was directly deposited onto the luminal surface of colonic intestinal mucosa in a nonhuman primate model.

[3] = tested on: circulating cytokines, chemokines, growth factors; type: in vivo, mice
[4] = Phase 1a single ascending dose in healthy male volunteers; type: in vivo, human; details: 60 and 120 mg
Experimental: In part B of the study, early data was gathered on the safety and tolerability, pharmacokinetics, pharmacodynamics and early clinical response following multiple ascending doses of the IL-10 delivery construct in Ulcerative Colitis (UC) patients (Part B).
Part A consisted of a single-ascending dose (SAD) escalation in healthy male volunteers. Six cohorts consisting of orally administered single ascending doses were conducted. At each dose level, 6 subjects were enrolled, randomized 2:4 to receive a single dose of placebo or the IL-10 delivery construct on day 1. The doses selected were 1 mg, 3 mg, 10 mg, 30 mg, 60 mg, and 120 mg.
Pre-clinical models have identified peripheral IL-1Ra production as a marker of IL-10 engagement to IL-10R in mucosal lymphocytes. To determine if the IL-10 delivery construct was actively transported across the epithelial cell lining into the Lamina propria and able to interact with lymphocytes, the levels of IL-1Ra induction was assessed.

IL-1Ra = test: Single oral capsule dose in NHP: plasma IL-1Ra; type: in vivo, Macaca fascicularis
Experimental: The purpose of the IL-1Ra assay was to measure endogenous IL-1Ra in NHP plasma. The antibody pair in this sandwich immunoassay reacted with both human and NHP IL-1Ra. Samples were quantitated using an 8-point standard curve prepared from a human IL-1Ra calibrator (ranging from 5.5-4021 pg/mL, plus 0 pg/mL). Biotinylated anti-NHP IL-1Ra capture antibody was added to a MSD Small Spot Streptavidin plate and incubated for an hour at RT with shaking. Controls that represent low ([…]), mid ([…]) and high concentrations (3245 pg/mL) were prepared in pooled plasma, Standards (Calibrator 9 Blend) were prepared in Diluent 43 (MSD Cat No R50AG), and samples diluted 10 fold in Diluent 43. Standards, controls and diluted samples were added to the assay plate, and the plate incubated for 2 hours at room temperature with shaking. The plate was washed 3 times with PBST, and 1×SULFO TAG anti-IL-1Ra Antibody added to the plate. The plate was incubated for 1 hour at room temperature with shaking. Following a wash step, 2×MSD Read buffer was added to the wells of the plate, and the plate read using the MSD Sector Imager 600 plate reader. The lower limit of detection of each analyte is defined as 2.5 standard deviation above background.
IL-10 delivery construct dosing at multiple fixed doses in non-naïve adult male Macaca fascicularis was conducted by Valley Biosystems (West Sacramento, Calif.). […] Dosing groups are described in TABLE 45.
Blood samples were collected in K2EDTA tubes from each animal pre-dose and at 0.5, 1, 2, 3, 4, 5, 6, 7, 8, and 24 hours post-dose. Animals were returned to home cages following the 2-hour sample collection. Following physical restraint, blood samples were collected via direct venous puncture using a cephalic, femoral or saphenous vein, which were processed to plasma and stored frozen at −60° C. until shipment.

STAT3 phosphorylation = test: pSTAT3 and hIL-10 immunofluorescence in intestine 40 min post oral gavage; type: in vivo, rat
Experimental: This observation is consistent with findings in mice that intestinal epithelial cells can express IL-10 receptors at their apical surface under certain conditions associated with development and maintenance of barrier function. […] In order to quantify how test articles affected intestinal IL-10 signal transduction pathways, image analysis was performed: high-throughput image batches were collected, segmented by epithelial versus Lamina propria localization, and then by cellular features.

STAT3, IL-1Ra = test: pSTAT3/STAT3 and systemic IL-1Ra in non-inflamed mice (ELISA MSD); type: in vivo
ulcerative colitis = test: Phase 1b multiple ascending dose in patients with active UC; type: in vivo, human
Experimental: Data was gathered on the safety, tolerability, pharmacokinetics, pharmacodynamics, and initial clinical response following a multiple ascending dose (MAD) of the IL-10 delivery construct in adult patients with active UC over 14 days of treatment. […] A coating with a weight ratio of 50:50 of Eudragit® L30D55: Eudragit® FS30D was applied with a thickness of 14.8 to 16.0 mg/cm^2 and a weight of approximately 76 mg to each capsule. Placebo capsules were generated using similarly coated empty capsules.
A total of four cohorts were dosed with either 1 mg, 3 mg, 10, mg or 30 mg of the IL-10 delivery construct, randomized 3:1 to receive the IL-10 delivery construct or a placebo administered once daily for fourteen days. The goal of the trial was to assess the safety of the IL-10 delivery construct and any change in UC disease activity, through endoscopy, histology, biomarkers, and serum samples. Stool samples and colonic biopsies were obtained at baseline and day 14 of treatment to assess fecal calprotectin as well as histology based upon blinded central read of the Geboes scoring system. Fecal calprotectin is an objective marker of clinical response in UC studies and the Geboes scoring system is a measure of histological response. The Geboes scoring system of this example used a 0-22 point histologic scoring system in which higher scores represent more severe disease.

B1: IL-10 delivery construct: recombinant homodimeric fusion protein: N-terminal methionine, cholix386 domain, polyGlySer spacer, recombinant human IL-10 (protein)
chain: MVEEALNIFDECRSPCSLTPEPGKPIQSKLSIPSDVVLDEGVLYYSMTINDEQNDIKDEDKGESIITIGEFATVRATRHYVNQDAPFGVIHLDITTENGTKTYSYNRKEGEFAINWLVPIGEDSPASIKISVDELDQQRNIIEVPKLYSIDLDNQTLEQWKTQGNVSFSVTRPEHNIAISWPSVSYKAAQKEGSRHKRWAHWHTGLALCWLVPMDAIYNYITQQNCTLGDNWFGGSYETVAGTPKVITVKQGIEQKPVEQRIHFSKGNAMSALAAHRVCGVPLETLARSRKPRDLTDDLSCAYQAQNIVSLFVATRILFSHLDSVFTLNLDEQEPEVAERLSDLRRINENNPGMVTQVLTVARQIYNDYVTHHPGLTPEQTSAGAQAGGGGSGGGGSGGGGSPGQGTQSENSCTHFPGNLPNMLRDLRDAFSRVKTFFQMKDQLDNLLLKESLLEDFKGYLGCQALSEMIQFYLEEVMPQAENQDPDIKAHVNSLGENLKTLRLRLRRCHRFLPCENKSKAVEQVKNAFNKLQEKGIYKAMSEFDIFINYIEAYMTMKIRN
modifications: homodimer
- CD3+ cells co-localizing with pSTAT3 ([1]; 40 min after oral gavage): moderate proportion
- F4/80 (macrophage) co-localization with pSTAT3 ([1]; after oral gavage): extensive co-localization with pSTAT3
- hIL-10 in small intestinal lysates relative to colonic lysates [2]: ~10 fold higher
- serum IL-1Ra ([2]; 4 h): significantly increased
- plasma IL-31 ([3]; 0.3 mg/kg): near-base line levels
- plasma TGF-β relative to Vehicle ([3]; 3.0 mg/kg): reduced
- plasma IL-3 ([3]; 9.0 mg/kg): near-base line levels
- plasma IL-4 ([3]; 9.0 mg/kg): near-base line levels
- production of IL-12 and IL-17 ([3]; 9.0 mg/kg): prevented the production
- plasma IL-28 ([3]; 3.0 and 9.0 mg/kg): near-base line levels
- plasma MCSF ([3]; highest dose (9.0 mg/kg)): reduced
- oxazolone-induced changes in LIX, LIF, IP10 ([3]; mouse, in vivo): mitigated
- oxazolone-induced increase in plasma GCSF/CSF3 ([3]; mouse, in vivo): attenuated
- plasma IL-13 and IL-15 vs Vehicle ([3]; mouse, in vivo): trend towards an IL-10 delivery construct-mediated decrease
- IL-1Ra induction at high dose [4]: loss of immunomodulatory activity
- time of plasma IL-1Ra Cmax (IL-1Ra; 82 mg): 3 hours post-dose
- dose response of IL-1Ra Cmax (IL-1Ra; 1, 4 and 20.5 mg): No dose response relationship
- time by which plasma IL-1Ra returned to baseline (IL-1Ra; all dose groups): ≤ 24 hour post-dose
- hIL-10 and pSTAT3 in intestinal tissue (STAT3 phosphorylation): extensive amounts of hIL-10 and a large number of cells that were positive for pSTAT3 within the Lamina propria
- increase in ratio of pSTAT3 to total STAT3 (STAT3, IL-1Ra; construct 1 mg/kg, rhIL-10 0.9 mg/kg (equimolar), non-inflamed colon tissue): approximately 50%
- increase of systemic IL-1Ra (STAT3, IL-1Ra; construct 10 mg/kg, rhIL-10 3 mg/kg (equimolar)): about 3 fold
- FCP activity at higher doses (ulcerative colitis; 10 mg and 30 mg): diminution of activity
- Geboes score of one UC patient, pre-dose to post-treatment (ulcerative colitis; 10 mg, 14 days, 22 point scale): improved from a score of 15 to a score of three
- tolerability in patients with UC (ulcerative colitis; 1-30 mg once daily, 14 days): well tolerated
- CRP levels vs placebo (ulcerative colitis; 1 and 3 mgs, baseline CRP greater than 5 mg/L): greater reductions in CRP levels
- patients with reduced Geboes score (ulcerative colitis; 14 days, active patients): 60%
- TEAEs in the 12 active patients (ulcerative colitis; human, in vivo): 20
